Reference: US11419921B2, “Methods of treating neurological disorders” (EnClear Therapies, Inc., priority 2018, dated 2022)

Test system: (GR)10
Experiment: Cleavage of (GR)10 by enzymes in solution (PBS with CaCl2 and MgCl2), LC/MS of GR repeats
Type: biochemical
Conditions: for (GR)1 concentration / (GR)2 concentration / (GR)4 concentration / (GR)6 concentration / (GR)8 concentration / (GR)10 concentration: (GR)10 50 μM; for (GR)1 / (GR)2 / (GR)3 / (GR)4 / (GR)5 / (GR)6 / (GR)8 / (GR)10: PBS, normalized
Procedure: • (GR)10 dipeptide (also (GR)8, (GR)6, (GR)4, (GR)2) were synthetized by solid-phase synthesis by CanPeptide; All peptides are uncapped and supplied lyophilized with TFA as counter ions. Purity was always above 95%. • Buffer: PBS buffer containing CaCl2 and MgCl2. • Stock solution of enzyme (e.g., 10 mg/mL) (prepared per manufacturer instructions) in PBS. Activators added as necessary. • Working solution of protein of the desired concentration (e.g., 100 μg/mL) prepared immediately before use by diluting the stock solution (e.g., 5 μL of 10 mg/mL stock solution) in PBS buffer (e.g., in 495 μL of PBS). Exemplary Procedure Using 50 μM Concentrations of (GR)10
25 μL of a 100 μM solution of (GR)10 was added to each well of a 96-well plate. 25 μL of a solution of enzyme (two times the desired final enzyme concentration) was added, and the plates were incubated at room temperature. At the specified time points (5 minutes, 10 minutes, 30 minutes, 60 minutes, and 180 minutes) 2.5 μL of a 10% TFA solution were added to stop the reaction. For the time 0 min well, the TFA was added to the well before addition of the enzyme. After last time point, all samples were further diluted with 150 μL of dilution solution. The quenched reaction mixtures were analyzed by LC/MS to determine the concentration of GR repeats of different lengths.
The chromatography and mass spectrometry conditions utilized are shown in Table 2 and Table 3, respectively.

B1: Clostripain: sulfhydryl protease cleaving at the C-terminus of arginine residues; in Table 23 also immobilized on agarose resin (protein)
chain: NKNQKVTIMYYCDADNNLEGSLLNDIEEMKTGYKDSPNLNLIALVDRSPRYSSDEKVLGEDFSDTRLYKIEHNKANRLDGKNEFPEISTTSKYEANMGDPEVLKKFIDYCKSNYEADKYVLIMANHGGGAREKSNPRLNRAICWDDSNLDKNGEADCLYMGEISDHLTEKQSVDLLAFDACLMGTAEVAYQYRPGNGGFSADTLVASSPVVWGPGFKYDKIFDRIKAGGGTNNEDDLTLGGKEQNFDPATITNEQLGALFVEEQRDSTHANGRYDQHLSFYDLKKAESVKRAIDNLAVNLSNENKKSEIEKLRGSGIHTDLMHYFDEYSEGEWVEYPYFDVYDLCEKINKSENFSSKTKDLASNAMNKLNEMIVYSFGDPSNNFKEGKNGLSIFLPNGDKKYSTYYTSTKIPHWTMQSWYNSIDTVKYGLNPYGKLSWCKDGQDPEINKVGNWFELLDSWFDKTNDVTGGVNHYQW
(GR)1 concentration (enzyme 2.5 μg/mL, 0 min): BLQ | (GR)2 concentration (enzyme 2.5 μg/mL, 0 min): BLQ | (GR)4 concentration (enzyme 2.5 μg/mL, 0 min): BLQ | (GR)6 concentration (enzyme 2.5 μg/mL, 0 min): BLQ | (GR)8 concentration (enzyme 2.5 μg/mL, 0 min): 0.7 µM | (GR)10 concentration (enzyme 2.5 μg/mL, 0 min): 39.7 µM | (GR)1 concentration (enzyme 2.5 μg/mL, 5 min): 25.6 µM | (GR)2 concentration (enzyme 2.5 μg/mL, 5 min): 8.7 µM | (GR)4 concentration (enzyme 2.5 μg/mL, 5 min): 6.7 µM | (GR)6 concentration (enzyme 2.5 μg/mL, 5 min): 3.6 µM | (GR)8 concentration (enzyme 2.5 μg/mL, 5 min): 2.2 µM | (GR)10 concentration (enzyme 2.5 μg/mL, 5 min): 5.4 µM | (GR)1 concentration (enzyme 2.5 μg/mL, 10 min): 35.3 µM | (GR)2 concentration (enzyme 2.5 μg/mL, 10 min): 14.0 µM | (GR)4 concentration (enzyme 2.5 μg/mL, 10 min): 9.8 µM | (GR)6 concentration (enzyme 2.5 μg/mL, 10 min): 4.3 µM | (GR)8 concentration (enzyme 2.5 μg/mL, 10 min): 1.8 µM | (GR)10 concentration (enzyme 2.5 μg/mL, 10 min): 2.3 µM | (GR)1 concentration (enzyme 2.5 μg/mL, 30 min): 72.9 µM | (GR)2 concentration (enzyme 2.5 μg/mL, 30 min): 36.8 µM | (GR)4 concentration (enzyme 2.5 μg/mL, 30 min): 7.5 µM | (GR)6 concentration (enzyme 2.5 μg/mL, 30 min): 1.4 µM | (GR)8 concentration (enzyme 2.5 μg/mL, 30 min): BLQ | (GR)10 concentration (enzyme 2.5 μg/mL, 30 min): BLQ | (GR)1 concentration (enzyme 2.5 μg/mL, 60 min): 148.6 µM | (GR)2 concentration (enzyme 2.5 μg/mL, 60 min): 62.1 µM | (GR)4 concentration (enzyme 2.5 μg/mL, 60 min): 1.9 µM | (GR)6 concentration (enzyme 2.5 μg/mL, 60 min): BLQ | (GR)8 concentration (enzyme 2.5 μg/mL, 60 min): BLQ | (GR)10 concentration (enzyme 2.5 μg/mL, 60 min): BLQ | (GR)1 concentration (enzyme 2.5 μg/mL, 120 min): 325.0 µM | (GR)2 concentration (enzyme 2.5 μg/mL, 120 min): BLQ | (GR)4 concentration (enzyme 2.5 μg/mL, 120 min): BLQ | (GR)6 concentration (enzyme 2.5 μg/mL, 120 min): BLQ | (GR)8 concentration (enzyme 2.5 μg/mL, 120 min): BLQ | (GR)10 concentration (enzyme 2.5 μg/mL, 120 min): BLQ | (GR)1 concentration (enzyme 10 μg/mL, 0 min): BLQ | (GR)2 concentration (enzyme 10 μg/mL, 0 min): BLQ | (GR)4 concentration (enzyme 10 μg/mL, 0 min): BLQ | (GR)6 concentration (enzyme 10 μg/mL, 0 min): BLQ | (GR)8 concentration (enzyme 10 μg/mL, 0 min): 0.6 µM | (GR)10 concentration (enzyme 10 μg/mL, 0 min): 37.9 µM | (GR)1 concentration (enzyme 10 μg/mL, 5 min): 99.0 µM | (GR)2 concentration (enzyme 10 μg/mL, 5 min): 51.8 µM | (GR)4 concentration (enzyme 10 μg/mL, 5 min): 5.4 µM | (GR)6 concentration (enzyme 10 μg/mL, 5 min): 0.6 µM | (GR)8 concentration (enzyme 10 μg/mL, 5 min): BLQ | (GR)10 concentration (enzyme 10 μg/mL, 5 min): 0.8 µM | (GR)1 concentration (enzyme 10 μg/mL, 10 min): 145.9 µM | (GR)2 concentration (enzyme 10 μg/mL, 10 min): 62.2 µM | (GR)4 concentration (enzyme 10 μg/mL, 10 min): 1.8 µM | (GR)6 concentration (enzyme 10 μg/mL, 10 min): BLQ | (GR)8 concentration (enzyme 10 μg/mL, 10 min): BLQ | (GR)10 concentration (enzyme 10 μg/mL, 10 min): BLQ | (GR)1 concentration (enzyme 10 μg/mL, 30 min): 336.9 µM | (GR)2 concentration (enzyme 10 μg/mL, 30 min): BLQ | (GR)4 concentration (enzyme 10 μg/mL, 30 min): BLQ | (GR)6 concentration (enzyme 10 μg/mL, 30 min): BLQ | (GR)8 concentration (enzyme 10 μg/mL, 30 min): BLQ | (GR)10 concentration (enzyme 10 μg/mL, 30 min): BLQ | (GR)1 concentration (enzyme 10 μg/mL, 60 min): 340.3 µM | (GR)2 concentration (enzyme 10 μg/mL, 60 min): BLQ | (GR)4 concentration (enzyme 10 μg/mL, 60 min): BLQ | (GR)6 concentration (enzyme 10 μg/mL, 60 min): BLQ | (GR)8 concentration (enzyme 10 μg/mL, 60 min): BLQ | (GR)10 concentration (enzyme 10 μg/mL, 60 min): BLQ | (GR)1 concentration (enzyme 10 μg/mL, 120 min): 355.8 µM | (GR)2 concentration (enzyme 10 μg/mL, 120 min): BLQ | (GR)4 concentration (enzyme 10 μg/mL, 120 min): BLQ | (GR)6 concentration (enzyme 10 μg/mL, 120 min): BLQ | (GR)8 concentration (enzyme 10 μg/mL, 120 min): BLQ | (GR)10 concentration (enzyme 10 μg/mL, 120 min): BLQ | (GR)1 (in solution - 5 min reaction): 82.6 µM | (GR)2 (in solution - 5 min reaction): 106.2 µM | (GR)3 (in solution - 5 min reaction): 39.1 µM | (GR)4 (in solution - 5 min reaction): 28.6 µM | (GR)5 (in solution - 5 min reaction): 12.7 µM | (GR)6 (in solution - 5 min reaction): 8.4 µM | (GR)8 (in solution - 5 min reaction): 0.0 µM | (GR)10 (in solution - 5 min reaction): 12.4 µM | (GR)1 (in solution - 60 min reaction): 383.2 µM | (GR)2 (in solution - 60 min reaction): 0.0 µM | (GR)3 (in solution - 60 min reaction): 0.0 µM | (GR)4 (in solution - 60 min reaction): 0.0 µM | (GR)5 (in solution - 60 min reaction): 0.0 µM | (GR)6 (in solution - 60 min reaction): 0.0 µM | (GR)8 (in solution - 60 min reaction): 0.0 µM | (GR)10 (in solution - 60 min reaction): 0.0 µM
